According to US20210332142A1 (Genentech, published 2021):
Where a chain is given by its changes, count along the chain named. Blank lines part the entries; values can stand above or below the binder they belong to.

Columns and labels:
[1] = molecular target: T1, recombinant cyno Tie2 extracellular domain (cynomolgus monkey, UniProt Q02763 23-748 (human entry)); experiment: SPR, IgG captured, 37C
T1 construct: also called Recombinant cyno Tie2 ECD; cy Tie2
T1 chain: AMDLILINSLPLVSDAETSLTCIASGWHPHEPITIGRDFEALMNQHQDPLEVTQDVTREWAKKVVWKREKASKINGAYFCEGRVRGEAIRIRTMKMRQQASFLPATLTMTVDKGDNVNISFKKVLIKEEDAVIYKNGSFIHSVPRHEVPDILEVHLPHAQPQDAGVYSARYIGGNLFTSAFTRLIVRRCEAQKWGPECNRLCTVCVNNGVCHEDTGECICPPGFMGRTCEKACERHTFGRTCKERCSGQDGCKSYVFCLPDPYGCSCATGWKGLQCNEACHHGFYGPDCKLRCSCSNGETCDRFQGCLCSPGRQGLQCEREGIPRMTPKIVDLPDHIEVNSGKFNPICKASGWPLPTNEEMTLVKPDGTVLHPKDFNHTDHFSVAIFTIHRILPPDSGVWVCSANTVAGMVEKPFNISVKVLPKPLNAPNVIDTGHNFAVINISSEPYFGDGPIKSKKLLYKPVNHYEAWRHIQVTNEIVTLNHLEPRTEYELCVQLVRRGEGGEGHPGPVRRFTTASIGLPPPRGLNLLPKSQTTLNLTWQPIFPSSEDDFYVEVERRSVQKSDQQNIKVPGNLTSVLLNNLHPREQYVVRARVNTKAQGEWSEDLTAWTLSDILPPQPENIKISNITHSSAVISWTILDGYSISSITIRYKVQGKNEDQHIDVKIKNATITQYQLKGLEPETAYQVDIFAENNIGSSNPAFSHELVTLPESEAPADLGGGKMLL
Method: (§1) A human antibody capture chip was prepared using a Series S CM5 chip (GE Life Sciences), a human antibody capture kit (GE Life Sciences) and an amine coupling kit (GE Life Sciences). Antibodies diluted to 5 μg/ml in running buffer (10 mM HEPES, 150 mM NaCl, 0.05% Tween 20, 1 mM EDTA, pH 7.4) were non-covalently captured using a contact time of 20 seconds and a flow rate of 10 μl/minute. Binding to 300 nM and 1500 nM recombinant Tie2 was analyzed at 37° C. using a Single Cycle Kinetics method with a contact time of 60 seconds, a dissociation time of 120 seconds and a flow rate of 50 μl/min. Between cycles, the surface was regenerated by a 30 second injection of 3M MgCl₂ at a flow rate of 30 μl/min. Values for antibody capture levels and analyte binding levels were obtained from the Report Point Table (Biacore Evaluation Software v3.0, GE Life Sciences). […] Table 16: Experiment A; Table 17: Experiment B.

[2] = molecular target: T2, recombinant human Tie2 extracellular domain (human, UniProt Q02763 23-748); experiment: SPR, IgG captured, 37C
T2 construct: whole entry named; also called Recombinant human Tie2 ECD; hu Tie2
T2 sequence (Q02763 23-748 limits assumed): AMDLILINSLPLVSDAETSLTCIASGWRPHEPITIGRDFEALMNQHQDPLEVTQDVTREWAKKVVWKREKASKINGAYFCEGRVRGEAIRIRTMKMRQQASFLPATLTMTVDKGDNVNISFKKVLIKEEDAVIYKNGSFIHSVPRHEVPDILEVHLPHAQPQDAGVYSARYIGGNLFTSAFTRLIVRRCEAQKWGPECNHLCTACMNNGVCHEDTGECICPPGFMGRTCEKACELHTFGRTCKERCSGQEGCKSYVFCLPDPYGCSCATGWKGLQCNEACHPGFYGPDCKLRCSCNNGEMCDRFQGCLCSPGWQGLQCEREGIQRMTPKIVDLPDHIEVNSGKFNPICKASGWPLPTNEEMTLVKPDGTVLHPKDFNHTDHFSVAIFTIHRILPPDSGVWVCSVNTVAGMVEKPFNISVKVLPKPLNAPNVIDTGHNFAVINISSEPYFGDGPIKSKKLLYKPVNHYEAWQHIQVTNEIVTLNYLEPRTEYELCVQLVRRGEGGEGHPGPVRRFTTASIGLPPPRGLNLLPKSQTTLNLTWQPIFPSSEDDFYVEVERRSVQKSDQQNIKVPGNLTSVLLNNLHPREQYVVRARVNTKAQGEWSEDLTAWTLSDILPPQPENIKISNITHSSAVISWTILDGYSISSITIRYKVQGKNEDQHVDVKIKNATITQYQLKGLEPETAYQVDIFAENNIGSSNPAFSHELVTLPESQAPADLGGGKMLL
Method: as §1

B1: Tie2.1.M100cA (antibody, IgG1, name in Kabat numbering, V domains shown)
VH: EVQLVESGGGLVQPGGSLRLSCAASGFTFSNTDISWVRQAPGKGLEWVGRISPSDGNTYYADSVKGRFTISADTSKNTAYLQMNSLRAEDTAVYYCARRTRWASWAADYWGQGTLVTVSS
VL: DIQMTQSPSSLSASVGDRVTITCRASQDVSTAVAWYQQKPGKAPKLLIYSASFLYSGVPSRFSGSGSGTDFTLTISSLQPEDFATYYCQQSYTTPPTFGQGTKVEIKR
notes: hIgG1
Normalized Binding Signal, 300 nM [1]: 0.03 | Normalized Binding Signal, 1500 nM [1]: 0.13 | Normalized Binding Signal, 300 nM [2]: 0.03 | Normalized Binding Signal, 1500 nM [2]: 0.14

B2: Tie2.1.M100cG (antibody, IgG1, name in Kabat numbering, V domains shown)
VH: B1 VH with A107G
VL: B1 VL
notes: hIgG1
Normalized Binding Signal, 300 nM [1]: 0.05 | Normalized Binding Signal, 1500 nM [1]: 0.2 | Normalized Binding Signal, 300 nM [2]: 0.06 | Normalized Binding Signal, 1500 nM [2]: 0.21

B6: Tie2.1.M100cH (antibody, IgG1, name in Kabat numbering, V domains shown)
VH: B1 VH with A107H
VL: B1 VL
notes: hIgG1
Normalized Binding Signal, 300 nM [1]: 0.1 | Normalized Binding Signal, 1500 nM [1]: 0.36 | Normalized Binding Signal, 300 nM [2]: 0.11 | Normalized Binding Signal, 1500 nM [2]: 0.39

B7: Tie2.1.M100cK (antibody, IgG1, name in Kabat numbering, V domains shown)
VH: B1 VH with A107K
VL: B1 VL
notes: hIgG1
Normalized Binding Signal, 300 nM [1]: 0.11 | Normalized Binding Signal, 1500 nM [1]: 0.39 | Normalized Binding Signal, 300 nM [2]: 0.13 | Normalized Binding Signal, 1500 nM [2]: 0.41

B9: Tie2.1.M100cN (antibody, IgG1, name in Kabat numbering, V domains shown)
VH: B1 VH with A107N
VL: B1 VL
notes: hIgG1
Normalized Binding Signal, 300 nM [1]: 0.1 | Normalized Binding Signal, 1500 nM [1]: 0.36 | Normalized Binding Signal, 300 nM [2]: 0.11 | Normalized Binding Signal, 1500 nM [2]: 0.38

B10: Tie2.1.M100cC (antibody, IgG1, name in Kabat numbering, V domains shown)
VH: B1 VH with A107C
VL: B1 VL
notes: hIgG1
Normalized Binding Signal, 300 nM [1]: 0.1 | Normalized Binding Signal, 1500 nM [1]: 0.35 | Normalized Binding Signal, 300 nM [2]: 0.11 | Normalized Binding Signal, 1500 nM [2]: 0.37

Results, then the binder that gave them:

Normalized Binding Signal, 300 nM [1]: 0.07 | Normalized Binding Signal, 1500 nM [1]: 0.29 | Normalized Binding Signal, 300 nM [2]: 0.08 | Normalized Binding Signal, 1500 nM [2]: 0.31
B3: Tie2.1.M100cW (antibody, IgG1, name in Kabat numbering, V domains shown)
VH: B1 VH with A107W
VL: B1 VL
notes: hIgG1

Normalized Binding Signal, 300 nM [1]: 0.02 | Normalized Binding Signal, 1500 nM [1]: 0.1 | Normalized Binding Signal, 300 nM [2]: 0.02 | Normalized Binding Signal, 1500 nM [2]: 0.11
B4: Tie2.1.M100cP (antibody, IgG1, name in Kabat numbering, V domains shown)
VH: B1 VH with A107P
VL: B1 VL
notes: hIgG1

Normalized Binding Signal, 300 nM [1]: 0.02 | Normalized Binding Signal, 1500 nM [1]: 0.09 | Normalized Binding Signal, 300 nM [2]: 0.02 | Normalized Binding Signal, 1500 nM [2]: 0.1
B5: Tie2.1.M100cT (antibody, IgG1, name in Kabat numbering, V domains shown)
VH: B1 VH with A107T
VL: B1 VL
notes: hIgG1

Normalized Binding Signal, 300 nM [1]: 0.04 | Normalized Binding Signal, 1500 nM [1]: 0.15 | Normalized Binding Signal, 300 nM [2]: 0.04 | Normalized Binding Signal, 1500 nM [2]: 0.16
B8: Tie2.1.M100cV (antibody, IgG1, name in Kabat numbering, V domains shown)
VH: B1 VH with A107V
VL: B1 VL
notes: hIgG1

Normalized Binding Signal, 300 nM [1]: 0.05 | Normalized Binding Signal, 1500 nM [1]: 0.2 | Normalized Binding Signal, 300 nM [2]: 0.06 | Normalized Binding Signal, 1500 nM [2]: 0.22
B11: Tie2.1.M100cR (antibody, IgG1, name in Kabat numbering, V domains shown)
VH: B1 VH with A107R
VL: B1 VL
notes: hIgG1
